Results: patent publication US20230174608A1 (published 2023)

What was measured:
[1] = molecular target: GLP-1 receptor (GLP-1R), stably expressed on HEK293 cells; assay: cell-based or functional assay
[2] = molecular target: Glucagon receptor (GCGR), stably expressed on HEK293 cells; assay: cell-based or functional assay

Binder	GLP-1R (nM EC50), receptor-mediated cAMP production in HEK293 cells [1] [nM]	GCGR (nM EC50), receptor-mediated cAMP production in HEK293 cells [2] [nM]
HXQGTFTSDYSKYLDERAAKEFIAWLEGG (HELM PEPTIDE1{H.[Aib].Q.G.T.F.T.S.D.Y.S.K.Y.L.D.E.R.A.A.K.E.F.I.A.W.L.E.G.G.[am]}|PEPTIDE2{[CCCCCCCCCCCCCCCC(=O)[*:2]].[gGlu].[gGlu]}$PEPTIDE1,PEPTIDE2,20:R3-3:R2$$$V2.0; N-terminus assumed; SMILES CCCCCCCCCCCCCCCC(=O)N[C@@H](CCC(=O)N[C@@H](CCC(=O)NCCCC[C@H](NC(=O)[C@H](C)NC(=O)[C@H](C)NC(=O)[C@H](CCCNC(=N)N)NC(=O)[C@H](CCC(=O)O)NC(=O)[C@H](CC(=O)O)NC(=O)[C@H](CC(C)C)NC(=O)[C@H](Cc1ccc(O)cc1)NC(=O)[C@H](CCCCN)NC(=O)[C@H](CO)NC(=O)[C@H](Cc1ccc(O)cc1)NC(=O)[C@H](CC(=O)O)NC(=O)[C@H](CO)NC(=O)[C@@H](NC(=O)[C@H](Cc1ccccc1)NC(=O)[C@@H](NC(=O)CNC(=O)[C@H](CCC(N)=O)NC(=O)C(C)(C)NC(=O)[C@@H](N)Cc1c[nH]cn1)[C@@H](C)O)[C@@H](C)O)C(=O)N[C@@H](CCC(=O)O)C(=O)N[C@@H](Cc1ccccc1)C(=O)N[C@H](C(=O)N[C@@H](C)C(=O)N[C@@H](Cc1c[nH]c2ccccc12)C(=O)N[C@@H](CC(C)C)C(=O)N[C@@H](CCC(=O)O)C(=O)NCC(=O)NCC(N)=O)[C@@H](C)CC)C(=O)O)C(=O)O) [dgc013]	0.319	1.99
HXQGTFTSDYSKYLEERAAKEFIAWLEGEG (HELM PEPTIDE1{H.[Aib].Q.G.T.F.T.S.D.Y.S.K.Y.L.E.E.R.A.A.K.E.F.I.A.W.L.E.G.E.G.[am]}|PEPTIDE2{[CCCCCCCCCCCCCCCC(=O)[*:2]].[gGlu]}$PEPTIDE1,PEPTIDE2,20:R3-2:R2$$$V2.0; N-terminus assumed; SMILES CCCCCCCCCCCCCCCC(=O)N[C@@H](CCC(=O)NCCCC[C@H](NC(=O)[C@H](C)NC(=O)[C@H](C)NC(=O)[C@H](CCCNC(=N)N)NC(=O)[C@H](CCC(=O)O)NC(=O)[C@H](CCC(=O)O)NC(=O)[C@H](CC(C)C)NC(=O)[C@H](Cc1ccc(O)cc1)NC(=O)[C@H](CCCCN)NC(=O)[C@H](CO)NC(=O)[C@H](Cc1ccc(O)cc1)NC(=O)[C@H](CC(=O)O)NC(=O)[C@H](CO)NC(=O)[C@@H](NC(=O)[C@H](Cc1ccccc1)NC(=O)[C@@H](NC(=O)CNC(=O)[C@H](CCC(N)=O)NC(=O)C(C)(C)NC(=O)[C@@H](N)Cc1c[nH]cn1)[C@@H](C)O)[C@@H](C)O)C(=O)N[C@@H](CCC(=O)O)C(=O)N[C@@H](Cc1ccccc1)C(=O)N[C@H](C(=O)N[C@@H](C)C(=O)N[C@@H](Cc1c[nH]c2ccccc12)C(=O)N[C@@H](CC(C)C)C(=O)N[C@@H](CCC(=O)O)C(=O)NCC(=O)N[C@@H](CCC(=O)O)C(=O)NCC(N)=O)[C@@H](C)CC)C(=O)O) [dgc019]	0.792	1.83
HXQGTFTSDYSKYLDERAAKEFIAWLEGG (HELM PEPTIDE1{H.[Aib].Q.G.T.F.T.S.D.Y.S.K.Y.L.D.E.R.A.A.K.E.F.I.A.W.L.E.G.G.[am]}|PEPTIDE2{[CCCCCCCCCCCCCCCC(=O)[*:2]].[gGlu]}$PEPTIDE1,PEPTIDE2,20:R3-2:R2$$$V2.0; N-terminus assumed; SMILES CCCCCCCCCCCCCCCC(=O)N[C@@H](CCC(=O)NCCCC[C@H](NC(=O)[C@H](C)NC(=O)[C@H](C)NC(=O)[C@H](CCCNC(=N)N)NC(=O)[C@H](CCC(=O)O)NC(=O)[C@H](CC(=O)O)NC(=O)[C@H](CC(C)C)NC(=O)[C@H](Cc1ccc(O)cc1)NC(=O)[C@H](CCCCN)NC(=O)[C@H](CO)NC(=O)[C@H](Cc1ccc(O)cc1)NC(=O)[C@H](CC(=O)O)NC(=O)[C@H](CO)NC(=O)[C@@H](NC(=O)[C@H](Cc1ccccc1)NC(=O)[C@@H](NC(=O)CNC(=O)[C@H](CCC(N)=O)NC(=O)C(C)(C)NC(=O)[C@@H](N)Cc1c[nH]cn1)[C@@H](C)O)[C@@H](C)O)C(=O)N[C@@H](CCC(=O)O)C(=O)N[C@@H](Cc1ccccc1)C(=O)N[C@H](C(=O)N[C@@H](C)C(=O)N[C@@H](Cc1c[nH]c2ccccc12)C(=O)N[C@@H](CC(C)C)C(=O)N[C@@H](CCC(=O)O)C(=O)NCC(=O)NCC(N)=O)[C@@H](C)CC)C(=O)O) [dgc014]	0.516	0.821
HXQGTFTSDYSKYLDEKAAKEFIAWLEGG (HELM PEPTIDE1{H.[Aib].Q.G.T.F.T.S.D.Y.S.K.Y.L.D.E.K.A.A.K.E.F.I.A.W.L.E.G.G.[am]}|PEPTIDE2{[CCCCCCCCCCCCCCCC(=O)[*:2]].[gGlu]}$PEPTIDE1,PEPTIDE2,20:R3-2:R2$$$V2.0; N-terminus assumed; SMILES CCCCCCCCCCCCCCCC(=O)N[C@@H](CCC(=O)NCCCC[C@H](NC(=O)[C@H](C)NC(=O)[C@H](C)NC(=O)[C@H](CCCCN)NC(=O)[C@H](CCC(=O)O)NC(=O)[C@H](CC(=O)O)NC(=O)[C@H](CC(C)C)NC(=O)[C@H](Cc1ccc(O)cc1)NC(=O)[C@H](CCCCN)NC(=O)[C@H](CO)NC(=O)[C@H](Cc1ccc(O)cc1)NC(=O)[C@H](CC(=O)O)NC(=O)[C@H](CO)NC(=O)[C@@H](NC(=O)[C@H](Cc1ccccc1)NC(=O)[C@@H](NC(=O)CNC(=O)[C@H](CCC(N)=O)NC(=O)C(C)(C)NC(=O)[C@@H](N)Cc1c[nH]cn1)[C@@H](C)O)[C@@H](C)O)C(=O)N[C@@H](CCC(=O)O)C(=O)N[C@@H](Cc1ccccc1)C(=O)N[C@H](C(=O)N[C@@H](C)C(=O)N[C@@H](Cc1c[nH]c2ccccc12)C(=O)N[C@@H](CC(C)C)C(=O)N[C@@H](CCC(=O)O)C(=O)NCC(=O)NCC(N)=O)[C@@H](C)CC)C(=O)O) [dgc017]	0.627	3.95

The next lines start with the values.

GLP-1R (nM EC50), receptor-mediated cAMP production in HEK293 cells [1] [nM]	GCGR (nM EC50), receptor-mediated cAMP production in HEK293 cells [2] [nM]	Binder
0.899	1.53	HXQGTFTSDYSKYLEERAAKEFIAWLEGG (HELM PEPTIDE1{H.[Aib].Q.G.T.F.T.S.D.Y.S.K.Y.L.E.E.R.A.A.K.E.F.I.A.W.L.E.G.G.[am]}|PEPTIDE2{[CCCCCCCCCCCCCCCC(=O)[*:2]].[gGlu]}$PEPTIDE1,PEPTIDE2,20:R3-2:R2$$$V2.0; N-terminus assumed; SMILES CCCCCCCCCCCCCCCC(=O)N[C@@H](CCC(=O)NCCCC[C@H](NC(=O)[C@H](C)NC(=O)[C@H](C)NC(=O)[C@H](CCCNC(=N)N)NC(=O)[C@H](CCC(=O)O)NC(=O)[C@H](CCC(=O)O)NC(=O)[C@H](CC(C)C)NC(=O)[C@H](Cc1ccc(O)cc1)NC(=O)[C@H](CCCCN)NC(=O)[C@H](CO)NC(=O)[C@H](Cc1ccc(O)cc1)NC(=O)[C@H](CC(=O)O)NC(=O)[C@H](CO)NC(=O)[C@@H](NC(=O)[C@H](Cc1ccccc1)NC(=O)[C@@H](NC(=O)CNC(=O)[C@H](CCC(N)=O)NC(=O)C(C)(C)NC(=O)[C@@H](N)Cc1c[nH]cn1)[C@@H](C)O)[C@@H](C)O)C(=O)N[C@@H](CCC(=O)O)C(=O)N[C@@H](Cc1ccccc1)C(=O)N[C@H](C(=O)N[C@@H](C)C(=O)N[C@@H](Cc1c[nH]c2ccccc12)C(=O)N[C@@H](CC(C)C)C(=O)N[C@@H](CCC(=O)O)C(=O)NCC(=O)NCC(N)=O)[C@@H](C)CC)C(=O)O) [dgc015]
0.401	1.3	HXQGTFTSDYSKYLDERAAKEFIAWLEGEG (HELM PEPTIDE1{H.[Aib].Q.G.T.F.T.S.D.Y.S.K.Y.L.D.E.R.A.A.K.E.F.I.A.W.L.E.G.E.G.[am]}|PEPTIDE2{[CCCCCCCCCCCCCCCC(=O)[*:2]].[gGlu]}$PEPTIDE1,PEPTIDE2,20:R3-2:R2$$$V2.0; N-terminus assumed; SMILES CCCCCCCCCCCCCCCC(=O)N[C@@H](CCC(=O)NCCCC[C@H](NC(=O)[C@H](C)NC(=O)[C@H](C)NC(=O)[C@H](CCCNC(=N)N)NC(=O)[C@H](CCC(=O)O)NC(=O)[C@H](CC(=O)O)NC(=O)[C@H](CC(C)C)NC(=O)[C@H](Cc1ccc(O)cc1)NC(=O)[C@H](CCCCN)NC(=O)[C@H](CO)NC(=O)[C@H](Cc1ccc(O)cc1)NC(=O)[C@H](CC(=O)O)NC(=O)[C@H](CO)NC(=O)[C@@H](NC(=O)[C@H](Cc1ccccc1)NC(=O)[C@@H](NC(=O)CNC(=O)[C@H](CCC(N)=O)NC(=O)C(C)(C)NC(=O)[C@@H](N)Cc1c[nH]cn1)[C@@H](C)O)[C@@H](C)O)C(=O)N[C@@H](CCC(=O)O)C(=O)N[C@@H](Cc1ccccc1)C(=O)N[C@H](C(=O)N[C@@H](C)C(=O)N[C@@H](Cc1c[nH]c2ccccc12)C(=O)N[C@@H](CC(C)C)C(=O)N[C@@H](CCC(=O)O)C(=O)NCC(=O)N[C@@H](CCC(=O)O)C(=O)NCC(N)=O)[C@@H](C)CC)C(=O)O) [dgc018]
1.23	0.342	HXQGTFTSDYSKYLEERAAKEFIAWLEGG (HELM PEPTIDE1{H.[Aib].Q.G.T.F.T.S.D.Y.S.K.Y.L.E.E.R.A.A.K.E.F.I.A.W.L.E.G.G.[am]}|PEPTIDE2{[CCCCCCCCCCCCCCCC(=O)[*:2]].[gGlu].[gGlu]}$PEPTIDE1,PEPTIDE2,20:R3-3:R2$$$V2.0; N-terminus assumed; SMILES CCCCCCCCCCCCCCCC(=O)N[C@@H](CCC(=O)N[C@@H](CCC(=O)NCCCC[C@H](NC(=O)[C@H](C)NC(=O)[C@H](C)NC(=O)[C@H](CCCNC(=N)N)NC(=O)[C@H](CCC(=O)O)NC(=O)[C@H](CCC(=O)O)NC(=O)[C@H](CC(C)C)NC(=O)[C@H](Cc1ccc(O)cc1)NC(=O)[C@H](CCCCN)NC(=O)[C@H](CO)NC(=O)[C@H](Cc1ccc(O)cc1)NC(=O)[C@H](CC(=O)O)NC(=O)[C@H](CO)NC(=O)[C@@H](NC(=O)[C@H](Cc1ccccc1)NC(=O)[C@@H](NC(=O)CNC(=O)[C@H](CCC(N)=O)NC(=O)C(C)(C)NC(=O)[C@@H](N)Cc1c[nH]cn1)[C@@H](C)O)[C@@H](C)O)C(=O)N[C@@H](CCC(=O)O)C(=O)N[C@@H](Cc1ccccc1)C(=O)N[C@H](C(=O)N[C@@H](C)C(=O)N[C@@H](Cc1c[nH]c2ccccc12)C(=O)N[C@@H](CC(C)C)C(=O)N[C@@H](CCC(=O)O)C(=O)NCC(=O)NCC(N)=O)[C@@H](C)CC)C(=O)O)C(=O)O) [dgc016]
